From the DeepSol protein solubility set

Assay: soluble on expression in E. coli; label from the status in PepcDB or PDB records

Sequence	soluble on expression in E. coli
MSLDSSMKISKVDNIGNHEDIEVNNAEIALSLASQMVGSGEEVVSMSIKYSKERVAFGKPIGSYQAIKHRVVNDAIDVELARSLILEAAENIKYAWIAKDLANKKIPKAILSGIQVHGGIGFTDDLDIHLHLRRALTLSKLYNSKVNISEFLQPIEGHHHHHH	not soluble
MSRYLITFDMDTNCLKDNYHGNNYTNAYSDIKTILARHGFENIQGSVYLGREGISEAHGTIAIQELTARFDWFYSCISNIKFYRLESDLNAQFIADGVYQAKQAFLQRVEQLRISLTEAGLSDEQINQVLEKQKFELESPNLKLN	not soluble
MKAMKSLGADLDKALGRLSGGLYIITAKKGDVSSAMLASWVNQASFKPLGFSIAVAKDRAIESLMQVGDRFVLNVLEEGNYQPLMRHFLKRFAPGADRFEGVKTQPAENGAPILGDALAYMECEVVSRMDCGDHWAVYSTVYAGRVSKSEALTAVHHRKVGNHYLEHHHHHH	soluble
MGSDKIHHHHHHMSSGITPPLIAGNLALDFINTQFGVGADRYECLNDDSSVVEWLHQAGVLNDTLAAPPAGLVERARELREDMQTLIVSAREGRGADPAIVNQVLERGHPIERLEWVPAYAAFQKQTYRRDLTSESLLQPVAQALVELLTKEDLHLVKECQAPDCVLLFHDQTKSHRRRWCSMASCGNRMKAAAHRARKSAT	not soluble
MERKWIKKKAHIVPTHAMYGLAQVLKDIGIDVISLVNYALNLHDYHYNGFEPGFSRYSKKEEVFRDLITLVKETRKVIDIYYSKYEVKEILGKINELIKELTEGNKLEHHHHHH	not soluble
MGHHHHHHSHRRQHPLPLLLLRHLRPQAHREPPQVYTSSQPLRVGYYETDNYTMPSPAMRRAVLETKQSLEAAGHTLVPFLPSNIPHALETLSTGGLFSDGGHTFLQNFKGDFVDPCLGDLVSILKLPQWLKGLLAFLVKPLLPRLSAFLSNMKSRCTAKP	not soluble
MGSDKIHHHHHHMPYAVTLPEFTGPLDLLLRLIERAELDITTIALASVADQYLAHVRTLEEVEPRELAEFVSMAARLILIKSRALLPRSPTTPAEAGDEDAGQLVAQLELYRRFKQAAEVLRRWQDQGRSTFVRLAPPPLLPAPAPISYRITDLLHALERRRQLQLPLAQPEPIVLAPRLTVAEVAERIRARLERTAWFDFTDLLSNDPTTEEVIVSFWAMLELLKRRAIVVEQTMLFGPILIGRGTAPIVTEPADEDEL	not soluble
MGSDKIHHHHHHMKIIDGNIASPLGFSADGLHAGFKKRKKDFGWIVSEVPASVAGVYTTNKVIAAPLIVTRESVKKAQKMQALVVNSGVANSCTGLQGMEDAYTMQKWTATKLKIAPELVGVASTGVIGDLMPMDTLQKGLSKLVVNGNSDDFAQAILTTDTKVKTVAVTEQFGRDEVTMAGVAKGSGMIHPNMATMLAFITCDAVISSETLQLALSQNVETTFNQITVDGDTSTNDMVLVLSNGCTLNKEILPDTPEFDKFSAMLHFVMQELAKKIAKDGEGATKLIEVEVINAPNSLDACMMAKSVVGSSLVKTAIFGEDPNWGRILAAVGYAGVDVPVDNIDIYLADIPVMLASSPVDFDEEDMQDVMRADTIKIIVDLHAGDSVGKAWGCDLSYDYVKINALYRT	not soluble
MGSDKIHHHHHHMADYQQMWANLGMDLEKHDVLCEVLPEAFGGVYLTQQDRPKGMDFYDFVVSEIHGVRPAEMLQHQKEGGKVFGTFCVYVPDEVVFAAGGIAAGLCGGSQFWVSGGEKVLPANTCPLIKASVGARLDKTCPFFLIPDMYVAENTCDGKKKAWEILAGEVPMHIIDIPQMKRERDVAAFAAEIRDFIGVVEKVTGKKINAESLGEAIKLINNKRRALQRVYNARKASPVPISGKDALLVTQINFYDDPARAAQMANNLADELEQRINNGTGVFPENAPRIMISGTPMAIPNWKLHHIVESLGAAIVVEESCTGTRYFENLVDETASTLDEQIRALAERYMKTNCACFTPNSARIDDIIRLADEYKVDGIIDTNLQFCNLYSTESYLIKQVMTERNLPIIHIETDYSEQDFEQLRTRVEAFLEMLRK	not soluble
MGISDNDVQKQLRHMMAFIEQEANEKAEEIDAKAEEEFNIEKGRLVQQQRQKIMEFFEKKEKQVELQRKIQASNSLNAGRLRCLKAREDHIGAVLDEARSNLSRISGDAARYPAILKGLVMQGLLQLLEKEVVLRCREKDLRLVEQLLPECLDGLQKEWGSTTKVVLDKQNFLPSESAGGVELSARAGKIKVSSTLESRLELIANQIVPQVRTALFGPNPNRSFFD	not soluble
MLAAGMSRRMGFNKLLAPLCGKRVLWHVLELVARFEGVLEGAVVVTSGEVADVLRRERPPGRRGLFRVVVNREQWRGLSHSIRLGVEASPGARAYLFFNGDRPFVSKHTVARVLALYMARRPLIAAPMAGGAIAPPVVVDSRLRGELLRLSGDTGVRSLFGKYRDSLAVVEVDDPGLHLDVDTPEDLERASKMCSQLGGGPREKPLEHHHHHH	not soluble
SKVKEGKDLIVGLDIGTSKIVAIVAEMKPEGGFEIIGLGSHLSRGLKKGVVVNIEATVNAIQRALEEVELMAGCRISEVYAGIAGNHIRGFNSHGMVAIKDKEVTQADVEKVMETAKAVNIPADQ	not soluble
MGSDKIHHHHHHMRSADSSPAYSPIGSLSSSHSFDSIPDQRMNKSLLSLACLILCGMPAIAQQTGPAERSGEPSLAERVFGLEQKQKKLKVYLGIQSFYDQPLVDDESHIGHFKVQELRMSAHGELNRHLSFDWRQRLNRAADGTSFADNLSNAIDIAGVDWHPNDKVSFFFGRQYARFGGIEYDMNPVEIYQYSDLVDYMTCYTSGVNFAWNFHPEQQLQLQVLNAYNNRFADRYHVTPDVATATSYPLLYSAQWNGTLLGGALHMRYAVSMAHQAQERNMWYFTAGNLFNPGKRINGYLDLTYSIEGLDDKGIMTARYGKGKTLTDVKYYALVSKWNFRIFDQVNLFLKGMYENGYAPAQYGESSHTRHSYGYMGGVEYYPTETNFRLFVTYIGRHYRYSATETESTNALRAGLIYQIPFL	not soluble
MGSDKIHHHHHHVSGPGLLPFRLTICGIDELPDHAAAGVSHVVTILDPQWPDPEHFALYPPHSRTIWRFHDIVNPQEGQAHPTMRDVEAILDYGTALKTETVEHLLIHCHMGISRSTATAIILMAQHNPGREAEAFTHLKAIRPFSWPNSRMVRMADDQLKRKGALVDAMRLHHHGVARRHPDKMAYLRTSERAAEVPPEE	not soluble
MKKLIINYTELVDYLLENRGMDGYIYFYESMETEQGIVISFSTFDTGDSIYRMKFCPSDHGYDTSLEPGSYSQSEYGTSFEEEDVEGYIAGLDEIIADKYKEFYDEDVEVVFVD	soluble
MIEFKNVSKHFGPTQVLHNIDLNIRQGEVVVIIGPSGSGKSTLLRCINKLEEITSGDLIVDGLKVNDPKVDERLIRQEAGMVFQQFYLFPHLTALENVMFGPLRVRGVKKEEAEKQAKALLAKVGLAERAHHYPSELSGGQQQRVAIARALAVKPKMMLFDEPTSALDPELRHEVLKVMQDLAEEGMTMVIVTHEIGFAEKVASRLIFIDKGRIAEDGSPQALIENPPSPRLQEFLQHVS	not soluble
MFSIIIPIYNSENYLRYSIESVLNQSIGFKENIELILIDDGSVDSSPQICESFKNLYPNNIKIMKIENSGPSAARNCGLSNVSERSKFIGFLDSDDAFSQNALQSVYDFFCDSEHVNIAVLPVYYTGEKEGGHKLNNRFEKGTRVINILNDYKAIHFYIGGTFYRRHTLTSTVLFDESIKFWEDAIFFNQLLLKEKRYGAVAEGKYFYRKRKEQDSLVDRSWFNKKRYTYLLNECYMTLLMDSFNKYDIVLPYLQFLIVYHIKLFLYPNYRDVYKSVLDQQEQRVFVDDFIKVLKFIDPQFIKEQDMPMYYKEFMFHLLKENTEALENIKKERVLHSSCTVTSAKIKGLRLELTGHFINQYYEMKENDRIYIKYFKRLKKCKRKELKKTIEVWGYKLRDFRYAGFVVEIPIWAFAFDFVLKTPNDSLELNHVNIFKSLLTRVFKKRLEHHHHHH	soluble
MPNKRNVELLATLKENLERAQGSFFLVNYQGLPAKETHALRQALKQNGARLFVAKNTLIRLALKELGLPELDGLQGPSAVVFYEDPVAAAKTLVQFAKSNPKGIPQVKSGLLQGQILTAKDVEALAELPTMDELRAELVGVLQAPMAELVGVLGGVARELVGILEAYAEKKAA	soluble
MSRQAKDDFLRHYTVSDPRTHPKGYTEYKVTAQFISKKDPEDVKEVVVWKRYSDFRKLHGDLAYTHRNLFRRLEEFPAFPRAQVFGRFEASVIEERRKGAEDLLRFTVHIPALNNSPQLKEFFRGGEVTRPLEVSRDLHILPPPLIPTPPPDDPRLSQLLPAERRGLEELEVPVDPPPSSPAQEALDLLFNCESTEEASGSPARGPLTEAELALFDPFSKEEGAAPSPTHVAELATMEVESARLDQEPWEPGGQEEEEDGEGGPTPAYLSQATELITQALRDEKAGAYAAALQGYRDGVHVLLQGVPSDPLPARQEGVKKKAAEYLKRAEEILRLHLSQLPP	soluble
MKRKVSVYDSSKDKTLGQVVKGESPIWIRVAMAILRVWFFIYDCLNYLPYQLFNSPTEKLRKSERVKANWVDDRDGPIRNIQGHASETFPGKDTVDKVWRKCVELYDESPCLGTRQLIEVHEDKQPGGRVFEKWHLGEYVWQSYKEVETQVARLAAGIKDLAHEEQNPKVVIFAETRADWLITALACFRANVTIVTVYATLGEDAIAHAIGETEATILVTSSELLPKIVTLGKKCPTLKTLIYFAPVDQKAPAPELAPFRDQFKHVLSLSGLLTRNQEQVKESTAVKSDIALIMYTSGTTGQPKGVILLHQNVVAALLGQGDGVGIICNADTYIGYLPLAHILELDAELTCLTKGAKVGYSSPLTLHDRASKIQKGTHGDCHALRPTLMAAVPAIMDRIFKAVSEEVAASPRFMQELFKLNYERKRSRYLEGYCSPFLDRIVFKKIRRLLGGKLRGVLSGGAPLNAETQRFMNICMCCPVVQGYGLTETCGAACVADINDLSTGTVGPPVRCSDIALREWSEGGYSPFNDPPQGEILISGENISPGYYKQPEKTAEDFITYKGKVYFATGDIGQKRDDGSLLIIDRKKDLVKLQHGEYVSLAKVECALLNCPIVDNICVYGSGMEDSVVALVVPNQKHLEKIAEAEGVSTSEMKTMCEDKKVIAAYKKQLEEHAKKSKLSRSEIPAAIHLCPEIWTPDTGLLTEALKLKRKPIQMAYQKTLDDLYKQLKKN	not soluble
AAAMKLAYWMYAGPAHIGTLRIASSFKNVHGIMHAPLGDDYFNVMRSMLERERDFTPVTASIVDRHVLARGSQEKVVDNIIRKDTEEHPDLIVLTPTCTSSILQEDLQNFVRRASLSTTADVLLADVNHYRVNELQAADRTLEQIVQFYIDKARRQGTLGTSKTPTPSVNIIGITTLGFHNQHDCRELKQLMADLGIQVNLVIPAAATVHDLQRLPQAWFNLVPYREIGGLTAQYLEREFGQPSVRITPMGVVETARCIRAIQGVLNAQGAGVNYEAFIEQQTREVSQAAWFSRSIDCQNLTGKKAVVFGDNTHAAAMTKILSREMGIHVVWAGTYCKYDADWFRAEVAGFCDEVLITDDHTVVGDAIARVEPAAIFGTQMERHVGKRLNIPCGVIAAPIHIQDFPVGYRPFLGYEGTNQLVDLIYNSFTLGMEDHLLEIFGGHDTKAVIHKGLSADSDLTWTAAGLAELNKIPGFVRGKVKRNTEKFAREQGISEITVEVLYAAKEAVGA	soluble
MLVLGGISLFLFMVKQNEKAMLNQEKERAAVVLADNETRVLFFYKDTCADCQKVYPTVYEEDQGENNIVFINLNQPKNRHYIKTYTLEKVPTFVTPKRRYVGTDTRKIQQLIAENNDERSEDLEHHHHHH	not soluble
